Experimental data taken from the DeepSol protein solubility set.

Assay: soluble on expression in E. coli; label from the status in PepcDB or PDB records

Row | Sequence | soluble on expression in E. coli
1 | GHNLSYSVSANLSNYDARITRYDNPEKVFAKSYYPGMKLGEIWGYHVDGLFASDEEAAQYSSQVDLGVVAKNLPQGTWRAGDLKFADLDGDGKISVGEDSALNPGDMKIIGNELPTLQYGFSGSLNYMGFDIYAFFQGTGNHYWYPNGYNYQFWGSFSDPVAGYIPRNFIDQCWSKDNPGAYFPRPLGQSAKNGQLSFVNDRYLQNIRYMRFKNLTIGYSIPGKILSKVSIQQLRVYFTAENLCYWSPIKKHSKYIDPEAAFSRSSNQLNAMYYPWAKTYMFGIDITL | not soluble
2 | MVSDAAERNLAFALSELDRITAQLKLPRHVEEEAARLYREAVRKGLIRGRSIESVMAACVYAACRLLKVPRTLDEIADIARVDKKEIGRSYRFIARNLNLTPKKLFVKPTDYVNKFADELGLSEKVRRRAIEILDEAYKRGLTSGKSPAGLVAAALYIASLLEGEKRTQREVAEVARVTEVTVRNRYKELVEKLKIKVPIA | soluble
3 | GSHMESGYAQNGDLEDAELDDYSFSCYSQLEVNGSQHSLTCAFEDPDVNTTNLEFEICGALVEVKCLNFRKLQEIYFIETKKFLLIGKSNICVKVGEKSLTCKKIDLTTIVKPEAPFDLSVVYREGANDFVVTFNTSHLQKKYVKVLMHDVAYRQEKDENKWTHVNLSSTKLTLLQRKLQPAAMYEIKVRSIPDHYFKGFWSEWSPSYYFRTPEINNSSGEMD | soluble
4 | MGSDKIHHHHHHMSAISYLHLLMLRQNNSMTRHNQTLFNLPLFNQHQFNPPQLNQVAIDQLQQGQAKRLSLLWLWLQQDETRLAALMVCQKVMQQQGITDWLISAGFIRNLIWDNLHSMTSQPLNDIDVIYWRDNNPSSAEDQAIEALLVKQIALPWSVKNQARMHLRNGDMPYISCADAMSFWPEKQTAIGVKLASIDDLTSAEFQLQVTSVFGLSCLFDLSLSPNPKRDKAIFNHRVSQKGWLIHYSKLLVTE | not soluble
5 | GPGSMPTAKVTEKEAACVTALKGEYPASKADPADAGFLSDSTYLRFARAHDGNVKKASELLGATLRWRKQTKPYAITMEEVQNAMKQTTMYCGGRCNIGCPVIAMVPGMQNDCTVEERTKQLVYIMEETHRKGYERITWIIDFGAMGSHRDERSKEARKETMKILQDYYPERMARILLYRTPWYIRMLLGAAKMFMDARTAAKVYNAGRTIEALEKFVDRDQVPPVCGGTMKGSALSHLEELPSLNSE | not soluble
6 | MGSDKIHHHHHHMNNLPLLDNNWNTDLYEDKHAFVWQYGENLLKVLNPKLGESILDLGCGTGQLTEKIAQAGAEVTGIDRASSMIETARQNYPHLRFDVADARDFQVLKPLDAVFSNAVLHWIKEADAAIASIHQALKPGGRFVAEFGGKGNIQAIVTALYSALEAIAISPQALNPWYFPSIGEYATLLEQQGFDVTYATLFARPTPLTEGEAGMANWLEMFADVFLAGLSADQKIQIIRTVEEHLLPTLYQQGNWTADYRRIRIVAIKL | not soluble
7 | MAEVHVRELKGWEEMEEVVALQREVWGRAESDLVPRGLLVAVQDEGGLVAGAFAEGRMVGFVFGFPTKDPALHHSHMLGVLEAYRGTGAALLLKRFQRDWCLARGVRRVVWTFDPMRGVNANFNLRKLGATAKTYLPDHYGPMSGINAGAPSDRLLAEWDLLSERVYARLYAPPPEPEVAGLPQANRVEGEVPLEARLDLEAERLLFQIPEDWGRILREDPALALKWREHSRLVLPHYFARGYRLVDLVRHPNRYVLAKD | soluble
8 | MATEQHLRQQLAAAYRLAALFGWEDTLYTHFSVRLPGDGEPRFLINPFGMMFDEVTASNLIVVDMQGKVVAGDAPANSAGFTIHSAVHMAREDAHCVIHTHTLPGMAVAACEDGLLQLNQISTEFYQRVGYHPYEGVAFDLDERARIQRSLGNNIAMILQSHGLLSVGRTVADAFYIMYYLNRACEIQMATAQLAALSPIHTIAPHLSQHACEQLMGVEHERQQVWQAWLRRLDRLDTSYKD | not soluble
9 | MGSDKIHHHHHHMTDNFFHGVRVRESTDLVTAINDIDSTVIGIVAIADDADPEMFPLNTPVLLTRVNNALGKAGKTGSLYKSLKAISDQCSTKVIVVRVAAATDGDDNQTQSQLVIGGTAADGSYTGMYAFLTAEQKTGYRPRILAVPDHDTIEVATQLGVIAQKLRAFFYAYCHNCETIAEAKAYRETLNYREVMPIWPNFIAYNTLTGENEEFPAVAYACGLRALIDNTQGWHKSLSNVAVNNVLGISKDVFWALQAEDSDANELNAHEITTLIKRDGFRFWGNRTTDPDKEYIFEVYTRTAQILADSIAEAQFTTVDKPMTPGNVKDVVSGINAKLQALVTAGKLIGAACWFDIVDNPTTGLRQGKCIVRYNYTPVPPLEDLSLYQTFTDQYFETAFSSLGGA | not soluble
10 | MGHHHHHHSHMFWRNPLPNIDHELQELLIDRGEDVPSEEEEEEENGFEDRKDDSDDDGGGWITPSNIKQIQQELEQCDVPEDVRVGCLTTDFAMQNVLLQMGLHVLAVNGMLIREARSYILRCHGCFKTTSDMSRVFCSHCGNKTLKKVSVTVSDDGTLHMHFSRNPKVLNPRGLRYSLPTPKGGKYAINPHLTEDQRFPQLRLSQKARQKTNVFAPDYIAGVSPFVENDISSRSATLQVRDSTLGAGRRRLNPNASRKKFVKKR | not soluble
11 | MFDFDGYMLRKAKSVNKALEAAVQMKEPLKIHESMRYSLLAGGKRVRPMLCIAACELVGGDESTAMPAACAVEMIHTMSLMHDDLPCMDNDDLRRGKPTNHMAFGESVAVLAGDALLSFAFEHVAAATKGAPPERIVRVLGELAVSIGSEGLVAGQVVDVCSEGMAEVGLDHLEFIHHHKTAALLQGSVVLGAILGGGKEEEVAKLRKFANCIGLLFQVVDDILDVTKSSKELGKTAGKDLVADKTTYPKLIGVEKSKEFADRLNREAQEQLLHFHPHRAAPLIALANYIAYRDN | soluble
12 | MAAALPRTLGELQLYRILQKANLLSYFDAFIQQGGDDVQQLCEAGEEEFLEIMALVGMASKPLHVRRLQKALRDWVTNPGLFNQPLTSLPVSSIPIYKLPEGSPTWLGISCSSYERSSNAREPHLKIPKCAATTCVQSLGQGKSDVVGSLALQSVGESRLWQGHHATESEHSLSPADLGSPASPKESSEALDAAAALSVAECVERMAPTLPKSDLNEVKELLKTNKKLAKMIGHIFEMNDDDPHKEEEIRKYSAIYGRFDSKRKDGKHLTLHELTVNEAAAQLCVKDNALLTRRDELFALARQISREVTYKYTYRTTKSKCGERDELSPKRIKVEDGFPDFQDSVQTLFQQARAKSEELAALSSQQPEKVMAKQMEFLCNQAGYERLQHAERRLSAGLYRQSSEEHSPNGLTSDNSDGQGERPLNLRMPNLQNRQPHHFVVDGELSRLYPSEAKSHSSESLGILKDYPHSAFTLEKKVIKTEPEDSR | soluble
13 | MGSDKIHHHHHHMPQTEAPDRILLIKLRHHGDILLTTPVARTLKSRFPQCEIDMLVYRETVPLLQHNPDIARVWTLDRSLRGWRKLVSQLRLLLALRRRRYQTVIHLSDQMQGAFFAKLLARRHAIGFDYPKRRKSPWHRFFTALAPLAPSDTLHTVSQNLLALSPLGITPTADEQRCVLPIQASDREAVAALLREAGVSGPYIVIHPSSRWFFKCWEDDRFAGLAEALASDGWSIVLTAAPDPAEMDMVAAIQGKIRSDRVVSVAGRLTLNQLAAIIDGARMFIGVDSVPMHMAAALGKDTVALFGPSKIHEWHPWMTRHRLLNAADYGELIDPDQVDTSTRQRYLKNIPLEAALRASRELLSSPAQE | not soluble
14 | MGSDKIHHHHHHAADKRIDGNGNPETREIKISDYDEITFVGSADFEYEQSDKAPYLSVTIDENLFDYLVTEVEGGTLKIYPKSIKKGFNNNSYDLRPTVYKIKSNSKELKELNTVGSGSFIISKPTKVNRMEINMAGSGNVELRGPVKGYKLECNMAGSGNIIAKDIQLDNLSCSLASSGEIEVIGTVDRASFNVAGSGEIKAFDCQARKAECNIASSGEISVYATQILDANIVGSGEIHYKGDPEISKSIMGSGSINKVK | not soluble
15 | MSLTAAVRHSDVLVVGAGSAGSVVAERLSMDSSCVVTVLEAGPGLADPGLLAQTANGLQLPIGAGSPLVERYRTRLTDRPVRHLPIVRGATVGGSGAINGGYFCRGLPSDFDRASIPGWAWSDVLEHFRAIETDLDFETPVHGRSGPIPVRRTHEMTGITESFMAAAEDAGFAWIADLNDVGPEMPSGVGAVPLNIVNGVRTSSAVGYLMPALGRPNLTLLARTRAVRLRFSATTAVGVDAIGPGGPVSLSADRIVLCAGAIQSAHLLMLSGVGEEEVLRSAGVKVLMALPVGMGCSDHPEWVMPTNWAVAVDRPVLEVLLSTHDGIEIRPYTGGFVAMTGDGTAGHRDWPHIGVALMQPRARGRITLVSSDPQIPVRIEHRYDSEPADVAALRQGSALAHELCGAATRIGPAVWATSQHLCGSAPMGTDDDPRAVVDPRCRVRGIENLWVIDGSVLPSITSRGPHATIVMLGHRAAEFVQEGHHHHHH | soluble
16 | MSEKIRVLLYYKYVSIENAQEYAAKHLEFCKSIGLKGRILIADEGINGTVSGDYETTQKYMDWVHSDERFADLWFKIDEENQQAFRKMFVRYKKEIVHLGLEDNNFDSDINPLETTGEYLNPKQFKEALLDEDTVVLDTRNDYEYDLGHFRGAIRPDIRNFRELPQWVRDNKDKFMEKRVVVYCTGGVRCEKFSGWMVREGFKDVGQLHGGIATYGKDPEVQGELWDGAMYVFDDRISVPINHVNPTVISKDYFDGTPCERYVNCANPFCNKQIFASEENETKYVRGCSPECRAHERNRYVQENGLSRQEWAERLEAIGESLPEFVGA | not soluble
17 | LTGFQVGPMLQYQTGFHGIVLDFSLLYVERGIKLTNTSNRRSADIKTQSIDIPIELKWEMGMSNNFDLFLGVGPSFSFLVDKDNWGRKLAHIAVDVIDKDLPSMGWRSTEVGLNLGGGVKIVNHLMVSCYYNIGLTQSAKHNIGGNKHDAIDQIFDGDVFESKNRYWQLSLAYVF | not soluble
18 | MSLSNWPYPRIVAHRGGGKLAPENTLASIDVGAKYGHKMIEFDAKLSKDGEIFLLHDDNLERTSNGWGVAGELNWQDLLRVDAGSWYSKMFKGEPLPLLSQVAERCREHGMMANIEIKPTTGTGPLTGKMVALAARELWAGMTPPLLSSFEIDALEAAQQAAPELPRGLLLDEWRDDWRELTARLGCVSIHLNHKLLNKARVMQLKDAGLRILVYTVNKPQRAAELLRWGVDCICTDAIDVIGPNFTAQEGHHHHHH | soluble
19 | MGANGSTEDYNAIAEETRNYQIQEAARRKEHLEALERQDAKRRETLAETTRAQLAAAEAEQKRKDEMQQKMMESNLAAQVARNKRIDNAQNQQNLNIEKEIENSNNWLDKQRTANQAVMAQRYTDHQNVLTREKERLTETEIRLENNLVDAKKMLENTQNQFNDDKIGYHEKKVQQMNENASKIELLVSQTTNLVLEQEKNDIVHKLAIQGMEQRTILNRGAIIQAQSLDSVEREFIDAVNSTRQKGNEVANSISRMGSYAFQLKPEDPVWSRTSQVAYCKKEIQKVDLLLEVLSDNTEEISKQRENRNQEVLRCHAVACLIQNAITTVRNSLNQFGASLQENTFTNCIGYYTDLLEKNKTLTDVIVQLPAVSRSNHTTSAIMYSSQRFAIDVQNDRLALEQKGQLALQNMINGNGGNTT | not soluble
20 | GPGSMDVARTMRATAGGKAFAVVAAEQTAGRGTGGRTWTSPKGNLYMTVGVPQLGQPPCLKEELVPVLPLICGLACRRAVLEVLHLDGALAKASVAADAAKAVATKWPNDIIYNHKKIGGTLIESDGDYLIIGIGMNIAVAPQMTDAGREATMINTIAEDFGVKSCPPRDLANAIWCHLFDICSSPEWTRELVIESFDKVMDKSLKLHKRLPGGRDPEELTAVSLNSWGHLKVRHADGTVEDLSAEYLF | not soluble
